The record followed here is patent US20030068675, “Position dependent recognition of GNN nucleotide triplets by zinc fingers” (published 2003).

Common to all, as to experiment: EMSA
Common to all, as to settings: tags: MBP fusion

The target of one series is T1, ZFP SBS#545 (synthetic).
T1 chain: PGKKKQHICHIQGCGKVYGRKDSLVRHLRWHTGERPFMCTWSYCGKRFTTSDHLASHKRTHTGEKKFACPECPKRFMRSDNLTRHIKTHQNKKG
In outline:
(§1)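 Purified ZFP was titrated against labeled double-stranded target (1 nM or lower, at least 10-fold below expected Kd) carrying the natural binding site with flanks. Binding buffer was 10 mM Tris pH 7.5, 100 mM KCl, 1 mM MgCl2, 0.1 mM ZnCl2, 5 mM DTT, 10% glycerol, 0.02% BSA, with equilibration for at least 45 min. Bound and free target were separated on a 10% polyacrylamide gel.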

The target in a further series is T2, ZFP SBS#550 (synthetic).
T2 chain: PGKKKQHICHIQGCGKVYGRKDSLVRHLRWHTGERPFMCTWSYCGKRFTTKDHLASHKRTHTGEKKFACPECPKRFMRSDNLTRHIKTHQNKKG
In outline:
as §1

For a further series, the target named is T3, ZFP SBS#553 (synthetic).
T3 chain: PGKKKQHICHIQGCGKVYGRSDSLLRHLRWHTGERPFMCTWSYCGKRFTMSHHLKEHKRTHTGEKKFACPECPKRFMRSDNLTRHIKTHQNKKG
Summed up:
as §1

For a further series, the target named is T4, ZFP SBS#560 (synthetic).
T4 chain: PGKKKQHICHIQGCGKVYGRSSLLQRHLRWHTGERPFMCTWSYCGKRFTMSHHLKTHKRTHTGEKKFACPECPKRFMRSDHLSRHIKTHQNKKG
Summed up:
as §1

For the next series, the target named is T5, ZFP SBS#549 (synthetic).
T5 chain: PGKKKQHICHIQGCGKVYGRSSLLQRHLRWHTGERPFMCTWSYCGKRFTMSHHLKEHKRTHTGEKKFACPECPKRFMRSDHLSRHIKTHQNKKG
In outline:
as §1

For another series, the target named is T6, ZFP SBS#548 (synthetic).
T6 chain: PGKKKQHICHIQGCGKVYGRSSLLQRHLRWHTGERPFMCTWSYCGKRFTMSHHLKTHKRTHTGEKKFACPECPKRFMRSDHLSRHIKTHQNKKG
In outline: as §1

The target of another series is T7, ZFP SBS#544 (synthetic).
T7 chain: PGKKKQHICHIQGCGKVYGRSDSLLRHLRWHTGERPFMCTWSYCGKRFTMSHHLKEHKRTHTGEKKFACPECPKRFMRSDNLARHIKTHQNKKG
Summed up: as §1

A further series concerns the target ZFP SBS#551 (synthetic). In outline: as §1
The next series has as its target T8, ZFP SBS#547 (synthetic).
T8 chain: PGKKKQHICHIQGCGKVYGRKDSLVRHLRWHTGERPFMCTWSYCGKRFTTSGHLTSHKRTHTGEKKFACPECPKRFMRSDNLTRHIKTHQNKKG
Summed up: as §1

The next series has as its target T9, ZFP SBS#552 (synthetic).
T9 chain: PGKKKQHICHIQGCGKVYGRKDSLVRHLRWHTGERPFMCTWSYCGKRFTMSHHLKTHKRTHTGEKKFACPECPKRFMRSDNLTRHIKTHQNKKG
In outline: as §1

The target of a further series is T10, ZFP SBS#554 (synthetic).
T10 chain: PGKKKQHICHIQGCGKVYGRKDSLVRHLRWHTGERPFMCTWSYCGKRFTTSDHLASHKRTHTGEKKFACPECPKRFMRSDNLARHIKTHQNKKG
Summed up:
as §1

In the next series the target is ZFP SBS#543 (synthetic). Summed up: as §1
Another series addresses ZFP SBS#546 (synthetic). Summed up: as §1
The next series deals with ZFP SBS#1500 (synthetic). In outline:
as §1

The target in the next series is ZFP SBS#1457 (synthetic). In outline: as §1
ZFP SBS#1457 (synthetic), sequence (chain, as listed by the source): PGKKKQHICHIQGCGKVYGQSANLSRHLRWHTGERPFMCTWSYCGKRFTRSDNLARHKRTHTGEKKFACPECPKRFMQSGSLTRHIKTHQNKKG
A further series deals with ZFP SBS#1493 (synthetic). In outline:
as §1

The next series addresses ZFP SBS#1488 (synthetic). In outline: as §1
For a further series, the target named is T11, ZFP SBS#1492 (synthetic).
T11 chain: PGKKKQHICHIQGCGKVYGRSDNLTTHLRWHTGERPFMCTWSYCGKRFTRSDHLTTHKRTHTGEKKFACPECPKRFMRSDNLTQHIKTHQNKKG
In outline: as §1

The target of a further series is ZFP SBS#1522 (synthetic). In outline:
as §1

The target of a further series is ZFP SBS#1496 (synthetic). In outline: as §1
ZFP SBS#1496 (synthetic), sequence (chain, as listed by the source): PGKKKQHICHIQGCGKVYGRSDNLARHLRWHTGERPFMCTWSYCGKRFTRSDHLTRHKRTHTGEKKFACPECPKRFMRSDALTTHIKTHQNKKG
A further series deals with T12, ZFP SBS#1460 (synthetic).
T12 chain: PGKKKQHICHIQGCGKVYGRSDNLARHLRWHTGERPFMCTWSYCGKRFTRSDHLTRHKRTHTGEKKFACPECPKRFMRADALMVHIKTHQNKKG
In outline: as §1

The target of a further series is T13, ZFP SBS#1499 (synthetic).
T13 chain: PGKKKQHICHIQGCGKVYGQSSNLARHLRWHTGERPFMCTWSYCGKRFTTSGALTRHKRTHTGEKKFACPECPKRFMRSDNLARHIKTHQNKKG
Summed up: as §1

A further series has as its target T14, ZFP SBS#1498 (synthetic).
T14 chain: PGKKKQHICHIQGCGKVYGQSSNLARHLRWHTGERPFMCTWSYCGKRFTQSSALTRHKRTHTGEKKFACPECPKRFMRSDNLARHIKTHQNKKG
Summed up: as §1

A further series deals with T15, ZFP SBS#1486 (synthetic).
T15 chain: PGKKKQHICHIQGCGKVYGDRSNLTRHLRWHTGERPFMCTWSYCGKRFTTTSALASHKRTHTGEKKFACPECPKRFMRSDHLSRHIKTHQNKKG
In outline: as §1

The target of another series is T16, ZFP SBS#1494 (synthetic).
T16 chain: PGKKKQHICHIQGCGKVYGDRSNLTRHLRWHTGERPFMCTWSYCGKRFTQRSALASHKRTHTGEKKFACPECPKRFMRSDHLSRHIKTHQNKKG
Summed up: as §1

The next series addresses ZFP SBS#1497 (synthetic). In outline: as §1

ZFP SBS#546 (synthetic), sequence (chain, as listed by the source): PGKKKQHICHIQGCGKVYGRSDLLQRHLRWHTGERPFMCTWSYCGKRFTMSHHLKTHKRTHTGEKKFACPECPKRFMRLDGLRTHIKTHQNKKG
ZFP SBS#1488 (synthetic), sequence (chain, as listed by the source): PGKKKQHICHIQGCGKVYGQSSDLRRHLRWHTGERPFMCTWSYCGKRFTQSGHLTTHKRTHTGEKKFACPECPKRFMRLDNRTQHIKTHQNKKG
ZFP SBS#1522 (synthetic), sequence (chain, as listed by the source): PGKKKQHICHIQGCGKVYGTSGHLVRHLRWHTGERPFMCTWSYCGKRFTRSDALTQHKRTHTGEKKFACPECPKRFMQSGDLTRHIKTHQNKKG

B1: GAGTGTGTGA (dsDNA)
DNA 1: GAGTGTGTGA
DNA 2: TCACACACTC
Turning to B1, the Kd in the series with ZFP SBS#545 came out at 32 nM; in the series with ZFP SBS#550, 20 nM; in the series with ZFP SBS#553, 125 nM; with ZFP SBS#560, 500 nM; in the series with ZFP SBS#549, 500 nM; with ZFP SBS#548, 500 nM. For the same molecule, the Kd with ZFP SBS#544 came out at 125 nM; with ZFP SBS#551, 50 nM; with ZFP SBS#547, 500 nM; with ZFP SBS#552, 31 nM; with ZFP SBS#554, 62.5 nM; with ZFP SBS#543 it was 50 nM. In addition, the affinity with ZFP SBS#546, expressed as Kd, was 500 nM.

B2: GCAGAGGAA (dsDNA)
DNA 1: GCAGAGGAA
DNA 2: TTCCTCTGC
For B2, the values for the Kd in the series with ZFP SBS#1500 and with ZFP SBS#1457 were 0.003 nM and 0.014 nM, respectively.

B3: AAGTGGTAG (dsDNA)
DNA 1: AAGTGGTAG
DNA 2: CTACCACTT
On to B3, for which the Kd with ZFP SBS#1493 is 15.1 nM; with ZFP SBS#1488 it was 5.64 nM; with ZFP SBS#1492, 1.37 nM.

B4: GCAATGGGT (dsDNA)
DNA 1: GCAATGGGT
DNA 2: ACCCATTGC
B4 yielded a Kd in the series with ZFP SBS#1522 of 0.08 nM.

B5: TTGGGGGAG (dsDNA)
DNA 1: TTGGGGGAG
DNA 2: CTCCCCCAA
In the case of B5, the Kd came to 0.065 nM with ZFP SBS#1496 and 0.007 nM with ZFP SBS#1460.

B6: GAGGTTGAT (dsDNA)
DNA 1: GAGGTTGAT
DNA 2: ATCAACCTC
As to B6, the Kd with ZFP SBS#1499 came out at 0.02 nM; with ZFP SBS#1498, 0.101 nM.

B7: GGGTTTGAC (dsDNA)
DNA 1: GGGTTTGAC
DNA 2: GTCAAACCC
As to B7, the Kd with ZFP SBS#1486 was determined as 0.085 nM; with ZFP SBS#1494, 0.255 nM.

B8: GAGGCTCTT (dsDNA)
DNA 1: GAGGCTCTT
DNA 2: AAGAGCCTC
B8 yielded a Kd in the series with ZFP SBS#1497 of 0.007 nM.
